Laboratory results taken from publication PMC10952772 (The Febs Journal, 2022).
Where two headings read alike, the source gives them in different places.

B2: Human Scribble (SCRIB) PDZ2 domain (860-950) (domain or fragment)
chain: RHVACLARSERGLGFSIAGGKGSTPYRAGDAGIFVSRIAEGGAAHRAGTLQVGDRVLSINGVDVTEARHDHAVSLLTAASPTIALLLEREA

Legend:
[1] = test system: PDZ; conditions: phosphorylated at the −2 position; ref [51], [52]; cited from earlier work
[2] = molecular target: T1, Human Scribble (SCRIB) PDZ1 domain (728-815) (human, UniProt Q14160 728-815); experiment: ITC
[3] = molecular target: B2; experiment: ITC
[4] = molecular target: T2, Human Scribble (SCRIB) PDZ3 domain (1002-1094) (human, UniProt Q14160 1002-1094); experiment: ITC
T2 sequence: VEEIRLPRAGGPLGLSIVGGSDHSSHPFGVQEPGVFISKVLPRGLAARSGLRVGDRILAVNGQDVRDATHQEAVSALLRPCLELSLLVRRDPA

[5] = molecular target: T3, Human Scribble (SCRIB) PDZ4 domain (1099-1203) (human, UniProt Q14160 1099-1203); experiment: ITC
T3 sequence: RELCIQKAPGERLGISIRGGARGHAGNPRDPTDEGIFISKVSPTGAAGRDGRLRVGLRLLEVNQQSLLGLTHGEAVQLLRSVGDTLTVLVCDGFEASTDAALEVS

[6] = molecular target: the molecule itself; experiment: AUC
[7] = molecular target: T1, Human Scribble (SCRIB) PDZ1 domain …; experiment: ITC; remark: listed apart in the source
[8] = molecular target: B2; experiment: ITC; remark: listed apart in the source
[9] = molecular target: T2, Human Scribble (SCRIB) PDZ3 domain …; experiment: ITC; remark: listed apart in the source
[10] = molecular target: T3, Human Scribble (SCRIB) PDZ4 domain …; experiment: ITC; remark: listed apart in the source

T1 sequence (Q14160 728-815): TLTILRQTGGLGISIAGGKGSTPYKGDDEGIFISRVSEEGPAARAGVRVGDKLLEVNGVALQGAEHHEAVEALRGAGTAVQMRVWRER

In the case of “HTLV‐1 Tax1: oncogenic Tax1 protein of HTLV‐1”, the “effect of phosphorylation at the −2 position of PBM on PDZ recognition” value [1] is listed as “phosphorylation inhibiting PDZ recognition”.

B1: HTLV-1 Tax1 PBM peptide (KHFRETEV, residues 346-353) (peptide)
peptide: KHFRETEV
For B1, the Kd [2] was 7.8 µM, the dH [2] was -4.21 kcal/mol and the “stoichiometry N” value [2] was 1.1. For the same molecule, the Kd [3] was 15.4 µM, the dH [3] was -4.08 kcal/mol and the “stoichiometry N” value [3] was 1.1. The Kd [4] was 9.1 µM, the dH [4] was -13.3 kcal/mol and the “stoichiometry N” value [4] was 0.9. The Kd [5] was 40.2 µM, the dH [5] was -2.17 kcal/mol and the “stoichiometry N” value [5] was 1.

With B2 the “stoichiometry N” value [6] was 2.

B3: Superpeptide (RSWFETWV) (peptide)
peptide: RSWFETWV
For B3, the Kd [7] was 0.6 µM, the dH [7] was -3.72 kcal/mol and the “stoichiometry N” value [7] was 0.9. For the same molecule, the Kd [8] was 2.2 µM, the dH [8] was -7.04 kcal/mol and the “stoichiometry N” value [8] was 1. For the same molecule, the Kd [9] was 1.6 µM, the dH [9] was -11.3 kcal/mol and the “stoichiometry N” value [9] was 0.9. The Kd [10] was 12.6 µM, the dH [10] was -2.9 kcal/mol and the “stoichiometry N” value [10] was 1.1.
